From the nanobody polyreactivity screen of Harvey et al. (2022) come the findings set out here.

This series is described as follows: yeast display, Sf9 membrane polyspecificity reagent, FACS + sequencing; frameworks hold sequencing errors. A digest of the protocol: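 Galactose-induced (36–48 hours) yeast carrying a synthetic nanobody display library were exposed to 10% biotinylated, detergent-solubilized Sf9 membrane reagent at 4 °C for 1 hour. FACS followed streptavidin microbead enrichment, using low and high (top ~1%) gates for expression (anti-HA) and reagent binding (streptavidin). Colony PCR, MiSeq 2 × 250 sequencing and CDR-length filtering followed. Labels for polyreactivity reflect the gate of origin.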
Take “QVQLVESGGGLVQAGGSLRLSCAASGRIYRNAMGWYRPAPGKERELVAAISSRGASTYYADSVKGRFTITRDNAKNTVYLQMNSLKPEDTAVYYCAARTSSSSGYYAREYWGQGTQVTVSS”: the “polyreactivity (PSR sort gate)” value was “high polyreactivity”. In the case of “QVQLVESGGGLVQAGGSLRLSCAASGFIFSYYAMGWYRQAPGKEREFVAAISRRGGSTYYADSVKGRFTISRDNAKNTVYLQMISLKPDDSAVYYCARRRTSTAVREHYYRDWYGYDYWGQGTQVTVSS”, the “polyreactivity (PSR sort gate)” value was “high polyreactivity”. As for “QVQLVESGGGLVQAGGSLRLSCAASGNTFGINAMGWYRQAPGKERELVASISFTGSSTYYADSVKGRFTISRDNAKNTVYLQMNSLKPEDTAVYYCNRDRITLYEYDYWGQGTQVTVSS”, the entry is “low polyreactivity”.

Regarding “QVQLVESGGGLVQAGGSLRLSCAASGSTFFRNAMGWYRQAPGKERELVASITSGGNTKYADSVKGRFTISRDNAKNTVYLQMNSLKPEDTAVYYCAALFYHFARYSRLYNYWGQGTQVTVSS”, the “polyreactivity (PSR sort gate)” value is reported as “low polyreactivity”. As for “QVQLVESGGGLVQAGGSLRLSCAASGRIFTYNARGWYRQAPGKERELVAAITYRGSSTYYADSVKGRFTISRDIAKNTVYLQMNSLKAEDTAVYYCAAVFSGFYYAYDYWGQGTQVTVSS”, the “polyreactivity (PSR sort gate)” value is “high polyreactivity”. As for “QVQLVESGGGLVQAGGSLRLSCAASGRIFSRYTMGWYRQAPGKERELVAAISRRGGSTNYADSVKGRFTISRDNAKNTVYLQMNSLKPEDTAVYYCAAHGPFVRSQSLRSGRFDYWGQGTQVTVSS”, the entry is “high polyreactivity”; as for “QVQLVESGGGLVQAGGSLRLSCAASGYIFAYNTMGWYRQAPGKERELVAAISRSGGSTYYADSVKGRFTISRDNAKNTVYLQMNSLKPEDTAVYYCAARYAPLDFRFDYWGQGTQVTVSS”, “high polyreactivity”; as for “QFQLVESGGGLVQAGGSLRLSCAASGSIFLWYAMGWYRQAPGKERELVAVITSSGGTTYYADSVKGRFTISRDNAKNTVYLQMNCMKPEDNAVYYSAADFYRHPPGSLTKLYYYWGQGTQVTVSS”, “low polyreactivity”. As for “QVQLVESGGGLVQAGGSLRLSCAASGSTFARYAMGWYRQAPGKEREFVAAISASGGRTYYADSVKGRFTISRDNAKNTVYLQMNSLKPEDTAVYYCAVRVYAKYFAKYDYWGQGTQVTVSS”, the entry is “high polyreactivity”; as for “QVQLVESGGGLVQAGGSLRLSCAASGSTFVINAMGWYRPAPGKERELVARISSSGGRTDYADSVKGRFTISRDNAKNTVYLQMNSLKPEDTAVYYCAAATWLIPYTWRDPSQYNYWAQGTQVTVSS”, “low polyreactivity”. On to “QVQLVESGGGLVQAGGSLRLSCAASGSTFVTYARGWYRQAPGKERELVAAISRRAGRTYYADSVKGRFTISRDNAQNTVSLQMNSLKPEDTAVYYCAKQAYEAFYTGDDYDYWGQGTKVTVSS”, for which the “polyreactivity (PSR sort gate)” value is “high polyreactivity”. “QVQLVESGGGLVQAGGSLRLSCAASGLTFGSYAMGWYRQAPGKERELVAAISRSGGSTYYADSVKGRFTISRDNAKNTVYLQMNSLKPEDTAVYYCNAVNPYYAPTDRRVGYDYWGQGTQVTVSS”: the “polyreactivity (PSR sort gate)” value is listed as “high polyreactivity”. With “EVQHVESGGGLVQAGGSLRLSCAASGSTFYENAMGWYRQAPGKERELVAAINWSGGRTYYADSVKGRFTISRDNAKNTVNLQMNCLKQEYTAVYYCATREYRYAHSYYWGQGTQVTVSS” the entry was “high polyreactivity”; with “QVQLVESGGGLVQAGGSLRLSCAASGRIFAYYAMGWYREAAGKERELVAAITTNGGGTYYADSVKGRFTISRDNAKNTVYLQMNSLKPEHTAVYYSNADKQRSSIFDYWGQGTQVTVSS”, “low polyreactivity”; with “QVQLVESGGCLVHAGGSLRLSCAASGFTFRWYAMGWYRQAPGKERELVASISRRGGSTYYADSVKGRFTISRDNEKNTVYLQMNSLKPEDSAVYYCAADYYDYWGQGTQVTVSS”, “high polyreactivity”. “QVQLVESGGGLVQAGGSLRLSCAASGSTFHYYAMGWYRQAPGKERELVATITSSGCSTYYADSVKGRFTISRDNAKNTVYLQMNSLKPEDTAVYYCNKKSYYRDYGRYDYWGQGSQVTVSS”: the “polyreactivity (PSR sort gate)” value is “low polyreactivity”.
